Here are results for one molecule from paper PMC7287080, “Distinct pre-initiation steps in human mitochondrial translation” (Nature Communications, 2020).

The assay has as its target mitoribosomal protein uS12m (human (endogenous in HEK293T), UniProt O15235 30-138). The experiment in a line: cryo-EM structure; recombinant mtIF2 (1 µM) preincubated with GDPNP (2.5 mM), added to the mtIF3-bound mtSSU eluate with fMet-tRNA (1 µM) and MT-CO2 mRNA (1 µM), 30 min at room temperature, buffer A (25 mM HEPES-KOH pH 7.5, 5.0 mM Mg(OAc)2, 100 mM KCl, 0.05% β-DDM). The settings on record: both partners purified.

B1: recombinant human mtIF2 (amino acids 38-727) (natural protein)
chain: SSAYPVWTAQLCAWPWPTDVLTGAALSQYRLLVTKKEEGPWKSQLSSTKSKKVVEVWIGMTIEELARAMEKNTDYVYEALLNTDIDIDSLEADSHLDEVWIKEVITKAGMKLKWSKLKQDKVRKNKDAVRRPQADPALLTPRSPVVTIMGHVDHGKTTLLDKFRKTQVAAVETGGITQHIGAFLVSLPSGEKITFLDTPGHAAFSAMRARGAQVTDIVVLVVAADDGVMKQTVESIQHAKDAQVPIILAVNKCDKAEADPEKVKKELLAYDVVCEDYGGDVQAVPVSALTGDNLMALAEATVALAEMLELKADPNGPVEGTVIESFTDKGRGLVTTAIIQRGTLRKGSVLVAGKCWAKVRLMFDENGKTIDEAYPSMPVGITGWRDLPSAGEEILEVESEPRAREVVDWRKYEQEQEKGQEDLKIIEEKRKEHKEAHQKAREKYGHLLWKKRSILRFLERKEQIPLKPKEKRERDSNVLSVIIKGDVDGSVEAILNIIDTYDASHECELELVHFGVGDVSANDVNLAETFDGVIYGFNVNAGNVIQQSAAKKGVKIKLHKIIYRLVEDLQEELSSRLPCAVEEHPVGEASILATFSVTEGKKKVPVAGCRVQKGQLEKQKKFKLTRNGHVIWKGSLTSLKHHKDDISIVKTGMDCGLSLDEDNMEFQVGDRIVCYEEKQIQAKTSWDPGF
notes: mitochondrial translation initiation factor 2 (mtIF2), human, mature form, amino acids 38-727, codon-optimised construct in pET-24b; also called mtIF2-GDPNP; source: E. coli Rosetta 2, purified (His-Select Ni2+ resin, Superdex 200)
For B1, the binding result is given as “binds”.
